Biological target: PP1G(7–300) (mouse) (UniProt P63087)

dephosphorylation as a substrate of the PPP1R15B-MBP-PP1-actin ternary complex, against wildtype eIF2a^P (Figure 8B): > 10 fold
dephosphorylation as a substrate of the PPP1R15B-MBP-PP1 binary complex, against wildtype eIF2a^P (Figure 8B): 2 fold
Substance: eIF2a^P (1–185) R66E; K86E double mutant (domain or fragment)

Source: PMC4394352
